The test concerns the target Neu4 with a C-terminal TAP (SBP/CBP) tag expressed in COS 7 cells (human) (UniProt Q8WWR8). The test can be described thus: SEC; FPLC size exclusion chromatography of the purified enzyme; apparent mass. Background: Size exclusion chromatography separates by hydrodynamic size, large species first.

Consider “Neu4 with a C-terminal TAP (SBP/CBP) tag expressed in COS 7 cells (from UniProt Q8WWR8 1-484) (enzyme)”, for which the stoichiometry N – broadly, a count of units in the complex or per binding partner – is 2.

Values taken from PMC4164519.
